System: C[C@]12CC[C@@H]3c4ccc(O)cc4CC[C@H]3[C@@H]1CC[C@@H]2O[C@@H]1O[C@H](C(=O)O)[C@@H](O)[C@H](O)[C@H]1O
Experiment: TP_TRANSPORTER: uptake in membrane vesicle from MDR1-expressing Sf9 cells
Assay type: functional, cell membranes

ATP-dependent translocase ABCB1 (Homo sapiens)
Km: 62 µM

Source: ChEMBL document CHEMBL2073751, “Adenosine triphosphate-dependent transport of estradiol-17beta(beta-D-glucuronide) in membrane vesicles by MDR1 expressed in insect cells” (Hepatology, 1998)
